We go through four molecules from publication PMC3510509, “Binding of two DNA molecules by type II topoisomerases for decatenation”.

Data set [1] concerns the target GyrB R321A (Mycobacterium smegmatis, UniProt P0C559 1-675, R321A). In words: EMSA; 200 and 400 nM; complex not seen; EMSA: 35 mM Tris-HCl pH 7.5, 1 mM spermidine, 25 mM K-glutamate, 90 ug/ml tRNA, 1.4 mM ATP, 50 ug/ml BSA, room temp (25 C), 1 nM DNA; filter binding: same mix on ice; SPR: 33 mM Tris-HCl pH 8.0, 5 mM MgCl2, 3 mM DTT, 25 C. Particulars: protein: recombinant; label: 32P 5'-end; blunt. In general terms: Mobility shift assays separate free from complexed probe on a gel.

Data set [2] has as its target ParE (Escherichia coli, UniProt P20083 1-630). In words: filter binding; 20 nM protein; most efficient of those tested; EMSA: 35 mM Tris-HCl pH 7.5, 1 mM spermidine, 25 mM K-glutamate, 90 ug/ml tRNA, 1.4 mM ATP, 50 ug/ml BSA, room temp (25 C), 1 nM DNA; filter binding: same mix on ice; SPR: 33 mM Tris-HCl pH 8.0, 5 mM MgCl2, 3 mM DTT, 25 C. Particulars: protein: recombinant; label: 32P 5'-end; blunt.

Data set [3] concerns the target MAEB hybrid gyrase (MsGyrA + EcGyrB) (Mycobacterium smegmatis / Escherichia …, UniProt P48354;P0AES6 1-842;1-804). Put plainly: EMSA; one complex; EMSA: 35 mM Tris-HCl pH 7.5, 1 mM spermidine, 25 mM K-glutamate, 90 ug/ml tRNA, 1.4 mM ATP, 50 ug/ml BSA, room temp (25 C), 1 nM DNA; filter binding: same mix o.
In data set [4] the target is GyrB (MsGyrB) (Mycobacterium smegmatis, UniProt P0C559 1-675). In words: EMSA; 0.1 and 0.2 uM GyrB; EMSA: 35 mM Tris-HCl pH 7.5, 1 mM spermidine, 25 mM K-glutamate, 90 ug/ml tRNA, 1.4 mM ATP, 50 ug/ml BSA, room temp (25 C), 1 nM DNA; filter binding: same mix on ice; SPR: 33 mM Tris-HCl pH 8.0, 5 mM MgCl2, 3 mM DTT, 25 C. Particulars: protein: recombinant; label: 32P 5'-end; blunt.

The target of data set [5] is DNA gyrase holoenzyme (EcGyr) (Escherichia coli, UniProt P0AES4;P0AES6 1-875;1-804). Put plainly: EMSA; 1.4 mM ATP; one complex; EMSA: 35 mM Tris-HCl pH 7.5, 1 mM spermidine, 25 mM K-glutamate, 90 ug/ml tRNA, 1.4 mM ATP, 50 ug/ml BSA, room temp (25 C), 1 nM DNA; filter binding: same mix o.
For data set [6], the target named is EAMB hybrid gyrase (EcGyrA + MsGyrB) (Escherichia coli / Mycobacterium …, UniProt P0AES4;P0C559 1-875;1-675). Put plainly: EMSA; two complexes; EMSA: 35 mM Tris-HCl pH 7.5, 1 mM spermidine, 25 mM K-glutamate, 90 ug/ml tRNA, 1.4 mM ATP, 50 ug/ml BSA, room temp (25 C), 1 nM DNA; filter binding: same mix on ice; SPR: 33 mM Tris-HCl pH 8.0, 5 mM MgCl2, 3 mM DTT, 25 C. Particulars: protein: recombinant; chain copies: 2;2; label: 32P 5'-end; blunt.

Data set [7] concerns the target Topoisomerase IV holoenzyme (Escherichia coli, UniProt P0AFI2;P20083 1-752;1-630). Put plainly: EMSA; 5-40 nM; two complexes; EMSA: 35 mM Tris-HCl pH 7.5, 1 mM spermidine, 25 mM K-glutamate, 90 ug/ml tRNA, 1.4 mM ATP, 50 ug/ml BSA, room temp (25 C), 1 nM DNA; filter binding: same mix on ice; SPR: 33 mM Tris-HCl pH 8.0, 5 mM MgCl2, 3 mM DTT, 25 C. Particulars: protein: recombinant; chain copies: 2;2; label: 32P 5'-end; blunt.

Data set [8] addresses T1, DNA gyrase holoenzyme (MsGyr) (Mycobacterium smegmatis, UniProt P48354;P0C559 1-842;1-675). In words: EMSA; 1.4 mM ATP; two complexes; EMSA: 35 mM Tris-HCl pH 7.5, 1 mM spermidine, 25 mM K-glutamate, 90 ug/ml tRNA, 1.4 mM ATP, 50 ug/ml BSA, room temp (25 C), 1 nM DNA; filter binding: same mix on ice; SPR: 33 mM Tris-HCl pH 8.0, 5 mM MgCl2, 3 mM DTT, 25 C. Particulars: protein: recombinant, chain copies: 2;2, blunt.

Data set [9] deals with T1, DNA gyrase holoenzyme (MsGyr). Put plainly: pull-down; first DNA, then 240 bp; 200 nM enzyme; EMSA: 35 mM Tris-HCl pH 7.5, 1 mM spermidine, 25 mM K-glutamate, 90 ug/ml tRNA, 1.4 mM ATP, 50 ug/ml BSA, room temp (25 C), 1 nM DNA; filter binding: same mix on ice; SPR: 33 mM Tris-HCl pH 8.0, 5 mM MgCl2, 3 mM DTT, 25 C. Particulars: protein: recombinant; chain copies: 2;2; label: biotin on one strand, 32P on complement; blunt.

The target is the same in data set [10]. In words: EMSA; 1.4 mM ATP; one complex; EMSA: 35 mM Tris-HCl pH 7.5, 1 mM spermidine, 25 mM K-glutamate, 90 ug/ml tRNA, 1.4 mM ATP, 50 ug/ml BSA, room temp (25 C), 1 nM DNA; filter binding: same mix on ice; SPR: 33 mM Tris-HCl pH 8.0, 5 mM MgCl2, 3 mM DTT, 25 C. Particulars: protein: recombinant; chain copies: 2;2; label: 32P 5'-end; blunt.

B1: DNA II (72 bp) (dsDNA)
DNA 1: ACTCTAGAGGATCCCCGGTTGGACTAAGTCCCCAGGCCCCTTAGCCACCACAACGTGGGTACCGAGCTCGAA
DNA 2: TTCGAGCTCGGTACCCACGTTGTGGTGGCTAAGGGGCCTGGGGACTTAGTCCAACCGGGGATCCTCTAGAGT
In the case of B1, the binding result in data set [1] was “no binding”; in [2], “binds”; in [3], “binds”; in [4] it was “binds”; in [5] it was “binds”; in [6], “binds”. Further, the binding result in data set [7] and in [8] (label: 32P 5'-end) was “binds” in each case.

B2: biotinylated 72 bp DNA (dsDNA)
DNA 1: ACTCTAGAGGATCCCCGGTTGGACTAAGTCCCCAGGCCCCTTAGCCACCACAACGTGGGTACCGAGCTCGAA
DNA 2: TTCGAGCTCGGTACCCACGTTGTGGTGGCTAAGGGGCCTGGGGACTTAGTCCAACCGGGGATCCTCTAGAGT
B2: the binding result in data set [9] is recorded as “binds”.

B3: DNA III (143 bp) (dsDNA)
DNA 1: GTAAAACGACGGCCAGTGCCAAGCTTGCATGCCTGCAGGTCGACTCTAGAGGATCCCCGGTTGGACTAAGTCCCCAGGCCCCTTAGCCACCACAACGTGGGTACCGAGCTCGAATTCGTAATCATGGTCATAGCTGTTTCCTG
DNA 2: CAGGAAACAGCTATGACCATGATTACGAATTCGAGCTCGGTACCCACGTTGTGGTGGCTAAGGGGCCTGGGGACTTAGTCCAACCGGGGATCCTCTAGAGTCGACCTGCAGGCATGCAAGCTTGGCACTGGCCGTCGTTTTAC
In the case of B3, the binding result in data set [5] and in [8] (label: 32P 5'-end (forward primer)) was “binds” throughout.

B4: DNA I (40 bp) (dsDNA)
DNA 1: GGTTGGACTAAGTCCCCAGGCCCCTTAGCCACCACAACGT
DNA 2: ACGTTGTGGTGGCTAAGGGGCCTGGGGACTTAGTCCAACC
In the case of B4, the binding result in [5] and in [10] was “binds” throughout.
